According to publication PMC4840434, “The interactome of Streptococcus pneumoniae and its bacteriophages show highly specific patterns of interactions among bacteria and their phages” (Scientific Reports, 2016):

Experiments:
Experiment in all cases: pull-down; LuMPIS: N-terminally MBP-tagged bait pulled down on amylose beads, N-terminally eGFP-luciferase-tagged prey detected by luciferase activity; both expressed in HEK cells, raw protein extracts; quadruplicates; LIR against MBP without ORF
[1] = target: Dp-1 orf32, Hypothetical protein (LuMPIS construct) (phage Dp-1 of S. pneumoniae)
[2] = target: Dp-1 orf9, No similarity (LuMPIS construct) (phage Dp-1 of S. pneumoniae)
[3] = target: Dp-1 orf58, Holin (LuMPIS construct) (phage Dp-1 of S. pneumoniae)
[4] = target: Dp-1 orf48, Hypothetical protein (LuMPIS construct) (phage Dp-1 of S. pneumoniae)
[5] = target: Cp-1 orf17, Tail protein N (LuMPIS construct) (phage Cp-1 of S. pneumoniae)
[6] = target: Cp-1 orfc, Hypothetical protein (LuMPIS construct) (phage Cp-1 of S. pneumoniae)
[7] = target: Dp-1 orf44, Rho-like domain lipoprotein (LuMPIS construct) (phage Dp-1 of S. pneumoniae)
[8] = target: Dp-1 orf34, Hypothetical protein (LuMPIS construct) (phage Dp-1 of S. pneumoniae)
[9] = target: Dp-1 orf29, Hypothetical protein (LuMPIS construct) (phage Dp-1 of S. pneumoniae)
[10] = target: Dp-1 orf31, Hypothetical protein (LuMPIS construct) (phage Dp-1 of S. pneumoniae)
[11] = target: Dp-1 orf14, dUTPase (LuMPIS construct) (phage Dp-1 of S. pneumoniae)
[12] = target: Dp-1 orf4, Queuosine biosynth. protein QueE (LuMPIS construct) (phage Dp-1 of S. pneumoniae)
[13] = target: Cp-1 orfb, Hypothetical protein (LuMPIS construct) (phage Cp-1 of S. pneumoniae)
[14] = target: Dp-1 orf18, DNA polymerase III, delta’ subunit HolB (LuMPIS construct) (phage Dp-1 of S. pneumoniae)
[15] = target: Cp-1 orf10, Connector protein (LuMPIS construct) (phage Cp-1 of S. pneumoniae)
[16] = target: Cp-1 orf6, Hypothetical protein (LuMPIS construct) (phage Cp-1 of S. pneumoniae)

“SP_1669, MutT/nudix family protein (LuMPIS construct) (from UniProt A0A0H2URA0 1-203) (natural protein)” gave an LIR (luminescence intensity ratio against MBP alone) [1] of 10.

“SP_1395, putative phosphate transport system regulatory protein PhoU (LuMPIS construct) (from UniProt A0A0H2UQU1 1-217) (natural protein)” gave an LIR (luminescence intensity ratio against MBP alone) [2] of 23.

With “SP_1751, putative transporter, CorA family (LuMPIS construct) (from UniProt A0A0H2UR86 1-302) (natural protein)” the LIR (luminescence intensity ratio against MBP alone) [3] was 5.

Work on “SP_1746, conserved hypothetical protein (LuMPIS construct) (from UniProt A0A0H2URF8 1-197) (natural protein)” yielded an LIR (luminescence intensity ratio against MBP alone) [4] of 3.

“SP_1504, TPR domain protein (LuMPIS construct) (from UniProt A0A0H2UQR2 1-403) (natural protein)” showed an LIR (luminescence intensity ratio against MBP alone) [2] of 19.

“SP_0979, oligoendopeptidase F (LuMPIS construct) (natural protein)” showed an LIR (luminescence intensity ratio against MBP alone) [5] of 14 and an LIR (luminescence intensity ratio against MBP alone) [6] of 3.

Work on “SP_0446, acetolactate synthase, small subunit (LuMPIS construct) (natural protein)” yielded an LIR (luminescence intensity ratio against MBP alone) [7] of 6 and an LIR (luminescence intensity ratio against MBP alone) [8] of 12.

Molecule “SP_2012, glyceraldehyde 3-phosphate dehydrogenase (LuMPIS construct) (natural protein)” has an LIR (luminescence intensity ratio against MBP alone) [9] of 3.

“SP_1575, conserved hypothetical protein (LuMPIS construct) (from UniProt A0A0H2UQU9 1-225) (natural protein)” showed an LIR (luminescence intensity ratio against MBP alone) [7] of 14.

For “SP_2168, putative fucose operon repressor (LuMPIS construct) (from UniProt A0A0H2USI3 1-257) (natural protein)”, the LIR (luminescence intensity ratio against MBP alone) [4] was 3, the LIR (luminescence intensity ratio against MBP alone) [10] was 5 and the LIR (luminescence intensity ratio against MBP alone) [2] was 15.

Molecule “SP_1153, hypothetical protein (LuMPIS construct) (from UniProt A0A0H2UQ84 1-392) (natural protein)” has an LIR (luminescence intensity ratio against MBP alone) [10] of 6.

Molecule “SP_1725, sucrose operon repressor (LuMPIS construct) (natural protein)” has an LIR (luminescence intensity ratio against MBP alone) [7] of 3.

Work on “SP_2125, conserved hypothetical protein (LuMPIS construct) (from UniProt A0A0H2URY4 1-113) (natural protein)” yielded an LIR (luminescence intensity ratio against MBP alone) [11] of 45.

“SP_1536, conserved hypothetical protein (LuMPIS construct) (from UniProt A0A0H2UQS7 1-249) (natural protein)” was tested, and the LIR (luminescence intensity ratio against MBP alone) [7] was 10.

Molecule “SP_2036, PTS system, IIA component (LuMPIS construct) (from UniProt A0A0H2URW0 1-161) (natural protein)” has an LIR (luminescence intensity ratio against MBP alone) [12] of 454.

“SP_1915, hypothetical protein (LuMPIS construct) (from UniProt A0A0H2URK9 1-149) (natural protein)” showed an LIR (luminescence intensity ratio against MBP alone) [1] of 5.

For “SP_2157, alcohol dehydrogenase, iron-containing (LuMPIS construct) (from UniProt A0A0H2USH2 1-383) (natural protein)”, the LIR (luminescence intensity ratio against MBP alone) [7] was 13 and the LIR (luminescence intensity ratio against MBP alone) [8] was 35.

With “SP_1731, conserved hypothetical protein (LuMPIS construct) (from UniProt A0A0H2UR87 1-252) (natural protein)” the LIR (luminescence intensity ratio against MBP alone) [3] was 3.

With “SP_1213, conserved domain protein (LuMPIS construct) (from UniProt A0A0H2UQB9 1-424) (natural protein)” the LIR (luminescence intensity ratio against MBP alone) [13] was 240.

B1: SP_1584, GTP-sensing transcriptional pleiotropic repressor CodY (LuMPIS construct) (natural protein)
chain: MAHLLEKTRKITSILKRSEEQLQDELPYNAITRQLADIIHCNACIINSKGRLLGYFMRYKTNTDRVEQFFQTKIFPDDYVQGANMIYETEANLPVEHDMSIFPIESRDDFPDGLTTIAPIHVSGIRLGSLIIWRNDKKFEDEDLVLVEIASTVVGIQLLNFQREEDEKNIRRRTAVTMAVNTLSYSELRAVSAILGELNGNEGKLTASVIADRIGITRSVIVNALRKLESAGIIESRSLGMKGTYLKVLISDIFEEVKKRDY
With B1 the LIR (luminescence intensity ratio against MBP alone) [14] was 6.

B2: SP_0194, conserved hypothetical protein (LuMPIS construct) (natural protein)
chain: MSHDHNHDHEERELITLVDEQGNETLFEILLTIDGKEEFGKNYVLLVPVNAEEDEDGQVEIQAYSFIENEDGTEGELQPIPEDSEDEWNMIEEVFNSFMEE
B2 was tested, and the LIR (luminescence intensity ratio against MBP alone) [1] was 5.

B3: SP_1881, glutamate racemase (LuMPIS construct) (natural protein)
chain: MDNRPIGFLDSGVGGLTVVRELMRQLPHEEIVYIGDSARAPYGPRPAEQIREYTWQLVNFLLTKDVKMIVIACNTATAVVWEEIKAQLDIPVLGVILPGASAAIKSSQGGKIGVIGTPMTVQSDIYRQKIHDLDPDLQVESLACPKFAPLVESGALSTSVTKKVVYETLRPLVGKVDSLILGCTHYPLLRPIIQNVMGPKVQLIDSGAECVRDISVLLNYFEINRGRDAGPLHHRFYTTASSQSFAQIGEEWLEKEIHVEHVEL
Work on B3 yielded an LIR (luminescence intensity ratio against MBP alone) [15] of 6.

B4: SP_1354, ribosomal protein L7/L12 (LuMPIS construct) (natural protein)
chain: MALNIENIIAEIKEASILELNDLVKAIEEEFGVTAAAPVAVAAADAADAGAAKDSFDVELTSAGDKKVGVIKVVREITGLGLKEAKELVDGAPALVKEGVATAEAEEIKAKLEEAGASVTLK
B4 gave an LIR (luminescence intensity ratio against MBP alone) [15] of 12.

B5: SP_1540, single-strand binding protein Ssb (LuMPIS construct) (natural protein)
chain: MINNVVLVGRMTRDAELRYTPSNVAVATFTLAVNRTFKSQNGEREADFINVVMWRQQAENLANWAKKGSLIGVTGRIQTRSYDNQQGQRVYVTEVVAENFQMLESRSVREGHTGGAYSAPTANYSAPTNSVPDFSRNENPFGATNPLDISDDDLPF
In the case of B5, the LIR (luminescence intensity ratio against MBP alone) [1] is reported as 3.

B6: SP_1713, transcriptional regulator, NrdR family (LuMPIS construct) (natural protein)
chain: MRCPKCGATKSSVIDSRQAEEGNTIRRRRECDECQHRFTTYERVEERTLVVVKKDGTREQFSRDKIFNGIIRSAQKRPVSSDEINMVVNRIEQKLRGRNENEIQSEDIGSLVMEELAELDEITYVRFASVYRSFKDVSELESLLQQITQSSKKKKER
With B6 the LIR (luminescence intensity ratio against MBP alone) [16] was 6.
